We go through one molecule from US12564623B2, “Methods and compositions for treating cancer” (The University of Chicago, priority 2017, dated 2026).

For one experiment, the system named is Cancer cells. Description: ELANE uptake and killing with endocytosis inhibitor Dynasore. Type of experiment: cell-based. The following applies: ELANE 30 nM, Dynasore 80 μM, 6 hours. The protocol: (FIG. 9A) Cancer cells were treated with ELANE (100 nM) in the presence or absence of a broad endocytosis inhibitor Dynasore (80 μM) for 30 mins. ELANE catalytic activity in cell lysates was assessed by a chromogenic substrate assay. (FIG. 9B) Cancer cells were treated with ELANE (30 nM) in the presence or absence of Dynasore (80 μM) for 6 hours. Cell viability was examined by Calcein AM staining. *, p<0.05, Student's t-test.

In the next experiment the target is T1, CD95 (Homo sapiens, UniProt P25445).
T1 sequence (P25445 26-335): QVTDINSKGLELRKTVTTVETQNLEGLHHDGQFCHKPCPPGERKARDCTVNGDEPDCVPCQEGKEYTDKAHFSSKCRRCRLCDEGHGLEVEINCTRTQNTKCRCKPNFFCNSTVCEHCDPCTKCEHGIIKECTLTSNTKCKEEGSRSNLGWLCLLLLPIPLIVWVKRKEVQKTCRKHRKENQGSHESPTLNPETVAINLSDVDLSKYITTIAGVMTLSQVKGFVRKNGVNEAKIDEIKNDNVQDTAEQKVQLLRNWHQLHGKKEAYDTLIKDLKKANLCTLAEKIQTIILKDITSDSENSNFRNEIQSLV
The experiment in a line: CD95 loss and immunoreactivity in ELANE-treated cancer cells. Type of experiment: cell-based. The arrangement: endogenous in cells; host or cells: Mel888 melanoma cells. The protocol:
ELANE lowers CD95 levels in cancer cells and reduced CD95 levels are associated with apoptosis. (FIG. 8A) Recombinant proteins (1 μg) corresponding to full length CD95 (FL-CD95), N-terminal domain of CD95 (amino acids 1-173; N-CD95), or C-terminal domain of CD95 (amino acids 157-320; C-CD95) were inbuated with ELANE (0.05 μg) or vehicle (Veh) for 2 hrs at 37° C. Degradation was assessed by SDS-PAGE followed by coomassie blue staining. […] (FIG. 8C) Cancer cells were treated with ELANE (50 nM) for 1 hr, fixed in 10% formalin, and stained with N- or C-terminal specific anti-CD95 antibodies (green). Hoechst 33342 solution was used for nuclear staining (blue). Images were taken under 40×.
ELANE selectively cleaves the C-terminal domain of CD95. The CD95 pathway is essential for the survival of a wide range of cancer cells, but largely dispensable for normal cell survival (Adachi et al., Nat. Genet., 1995; Karray et al., J. Immunol., 2004). CD95 function can be modulated by proteolysis (Strand et al., Oncogene, 2004). […] Degradation was assessed by SDS-PAGE followed by staining with coomassie blue. […] Mel888 cancer cells were treated with ELANE (50 nM) for various times, and CD95 degradation was assessed by western blot analysis with a C-terminal specific anti-CD95 antibody.

B1: neutrophil elastase (protein, listed as Homo sapiens)
chain: MTLGRRLACLFLACVLPALLLGGTALASEIVGGRRARPHAWPFMVSLQLRGGHFCGATLIAPNFVMSAAHCVANVNVRAVRVVLGAHNLSRREPTRQVFAVQRIFENGYDPVNLLNDIVILQLNGSATINANVQVAQLPAQGRRLGNGVQCLAMGWGLLGRNRGIASVLQELNVTVVTSLCRRSNVCTLVRGRQAGVCFGDSGSPLVCNGLIHGIASFVRGGCASGLYPDAFAPVAQFVNWIDSIIQRSEDNPCPHPRDPDPASRTH
notes: purified native ELANE
B1: the “dependence of killing on uptake” value with Cancer cells is recorded as “internalization is required to kill cancer cells”. Besides, in the experiment with CD95 (50 nM, 1 hr), the “CD95 immunoreactivity of cancer cells” value was “lose immunoreactivity to a C-terminal specific CD95 antibody, but not to an N-terminal specific CD95 antibody”. The “CD95 at the cell surface” value with CD95 (incubating cancer cells with ELANE) is recorded as “CD95 loss from the cell surface”.
